Measured values published in the supplement of paper PMC12042874.
± gives the uncertainty stated by the source.

Assay: amyloid nucleation score (Sup35N fusion, yeast selection) (log enrichment); library NNK2; higher = more nucleation; inactive = no reads after selection
Procedure, shortened: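 Nucleation score: DiMSum log enrichment of output over input reads, centred on the mode score of non-aggregating sequences. Only sequences with at least 100 input reads were kept. Reads came from Illumina sequencing of plasmid inserts before and after 7 days of growth at 30°C without adenine and uracil, in psi-negative yeast expressing Sup35N fused to peptides of 20 random codons after 24 hours of induction with 100 μM copper sulfate.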

Substance	amyloid nucleation score
NDSSLCSSVRPIRMREEFDK	-0.099 ± 0.25
NDSTLGRLSYNLRDLRSQKM	-0.502 ± 0.79
NECRVDFE	-0.668 ± 0.56
NEHYGRTMTN	-0.064 ± 1.1
NENTLNMMKVWVTGGLSTRK	2.89 ± 0.17
NEVSGNGLFSIFSQSGKSYY	inactive
NFACVFHGVDFYRTDSSCRK	5.17 ± 0.072
NFADWTCFDIQVR	-0.186 ± 0.32
NFASFCPFFS	0.053 ± 0.39
NFCLARRYTYIKSPFCVSGK	0 ± 0.56
NFGGIKKLYNTMRSYWLGTR	-1.22 ± 0.45
NFGIKWIVFLKL	-0.861 ± 0.28
NFGLEELTGKIGGRTC	1.04 ± 0.23
NFKECNLDCKSHLRNVWLRQ	inactive
NFNGGCKFKGDYYRKA	1.14 ± 0.26
NFSDWIYVFSEVPMLVRCRW	0.261 ± 0.42
NFSNVFWKFISRWLTAF	inactive
NFSYRSFNRLVRGRD	inactive
NFVLGKTSSVVCSHQSAALT	0.505 ± 0.18
NGDLIRDRECRANMRFIMRV	-1.21 ± 0.45
NGFHCG	inactive
NGNIKFFHRMRRTRHVACLY	0.223 ± 0.39

Substance	amyloid nucleation score
NGNTVVLGSLIFYKLVLVAS	5.64 ± 0.033
NGRRFLSYSVMLRDLRYRSC	0.138 ± 0.76
NGRTRCNPFLFGFKGRPGEC	-1.34 ± 1.1
NGVLRDHWTMAQTCAGVECS	-0.403 ± 1.1
NHGWLYGWVVVNYTFTTGVM	-1.63 ± 0.39
NHSVTWLPD	1.27 ± 0.41
NICIN	inactive
NICLGMCLYHGVSDAVDQSR	7.971 ± 0.055
NIFSWEAVEKARYAHSPLNN	-1.44 ± 1.1
NIGSVKN	0.098 ± 0.38
NIKFHVFDLCDSPHGWLPDR	0.224 ± 0.56
NILLMYFSLK	5.74 ± 0.049
NILNFMDS	-0.603 ± 1.1
NILRATTFCVDHLYSSFFCT	6.74 ± 0.068
NILWSNLGRMCRQLFAVFWS	-0.738 ± 0.62
NIPAYTSMTFVLWTIL	-0.153 ± 0.37
NIPLLLMFHSTIWFKMHIWE	1.51 ± 0.11
NIQTWGSGHVSTSDG	3.24 ± 0.089
NIVQEHTTCTEVRGVSALAR	0.436 ± 0.66
NIWRRSSSV	inactive
NKAHINW	0.476 ± 0.6
NKEECL	0.021 ± 0.35

Substance	amyloid nucleation score
NKLLHHFILGAEESLLEIMY	inactive
NKMTF	0.502 ± 0.44
NKNRKQSLDKPS	-0.493 ± 1.1
NKRSCNGCGSRAHQDSL	-0.176 ± 1.1
NKSGDSQLLRVYYIVLVFMW	-1.08 ± 0.62
NLDDYPG	1.66 ± 0.25
NLDEVFMFTSTHLVIPLESK	-1.6 ± 0.75
NLHVGREPQGSEYVDPFSVV	0.731 ± 0.25
NLIFI	inactive
NLLLLTVRKLNAVNMSTPPY	2.05 ± 0.21
NLLYKMTMWTKFGRLSSCCK	0.001 ± 0.42
NLRVSFGREDCL	-0.347 ± 0.55
NLSILTICMFLPVDFGI	6.525 ± 0.059
NLTYWLVLLRFKKLTDGEHE	-0.259 ± 0.3
NLVLRPR	inactive
NLWSSGKWLMCI	-0.292 ± 0.29
NMFNPFRFRISNYEVCSNMC	6.257 ± 0.043
NMIYYGVL	-1.24 ± 0.45
NMVHNDRSRKVKLSWCATFK	7.609 ± 0.058
NNDGTPDPNM	-0.237 ± 0.63
NNEFYRRYVGNYSLVMVMGN	-0.088 ± 1.1
NNFRWNVMVCYAFQGYSGVK	2.64 ± 0.068

Substance	amyloid nucleation score
NNKTKPVVFILSMYNYERFS	2.12 ± 0.25
NNNGV	1.45 ± 0.13
NNRSELVPKSANRMGFTSLA	-0.278 ± 0.29
NPALVFIHA	inactive
NPIGFFHDLGVWIWWSSMAT	-1.26 ± 1.1
NPLAIVAS	-1.77 ± 0.78
NPNELLLSSCFFHYLVKPWG	inactive
NPRGWAVEMVDYHSTFLKPE	5.64 ± 0.075
NPTHLLPHTEIGVLDTCAF	0.265 ± 1.1
NPTWVRCYWHFWFTVNGFQY	-1.17 ± 1.1
NPWVRFVVSCLYAVSQQCGL	4.66 ± 0.07
NPYIINLFCYKIVRLGAIFT	4.14 ± 0.068
NQDPRSRLLSNELYGCHFVL	-0.214 ± 0.28
NQFVVMDQVLVMWGCFDLTR	0.417 ± 0.46
NQKSLFVARETSTMFPSPYV	-0.141 ± 0.38
NQLRVLMTIFWPGMLNTPAV	0.622 ± 0.31
NQVSIIHWWAAYDYWSPM	-0.163 ± 0.6
NRAAKRGIRRHMSSYTYARV	0.153 ± 0.36
NRHMLNTDRRPQVRLHFGTL	0.232 ± 0.37
NRHPRRYRNNAGDDSLMRIL	1.74 ± 0.096
